Assay results as given in patent US20230220042A1 (SHANGHAI JIAO TONG UNIVERSITY SCHOOL OF MEDICINE, published 2023).

T1: Biotin-FcγRIIB (human, UniProt P31994 43-217, limits assumed, biotin-labelled)
T1 construct: Bought, biotin-labelled; used at 1 µg/ml for staining and sorting; also called human FcγRIIB; CD32b
T1 sequence (looked up): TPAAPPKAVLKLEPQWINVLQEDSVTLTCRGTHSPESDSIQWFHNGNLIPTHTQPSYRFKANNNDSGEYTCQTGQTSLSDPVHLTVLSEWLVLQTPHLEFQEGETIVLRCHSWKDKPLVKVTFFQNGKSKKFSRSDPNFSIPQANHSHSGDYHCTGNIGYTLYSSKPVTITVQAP


How the values were obtained:
[1] = molecular target: T1, Biotin-FcγRIIB; assay: FACS sorting of displayed Fc library on biotin-FcγRIIB, NGS; reference G327A
[2] = molecular target: T1, Biotin-FcγRIIB; assay: FACS sorting of displayed Fc library on biotin-FcγRIIB, NGS
[3] = molecular target: T1, Biotin-FcγRIIB; assay: FACS sorting of displayed Fc library on biotin-FcγRIIB, NGS; reference S267E

Row | Increased factor 2 c Site 1 (combined/point mutation) [1] | Enrichment factor (after/before sorting) [2] | Increased factor a (enrichment factor/wild-type enrichment factor) [2] | Increased factor 2 c Site 1 (combined/point mutation) [3] | Binder
1 | 19.5 | 98.3 | 65.8 | – | human IgG2 anti-mouse CD40 surface displayed antibody, Fc mutant G327A/A330R (antibody, name in EU numbering, as m1; positions are Eu numbers; copies: 2 + 2) light chain (with the P2A rest): DTVLTQSPALAVSPGERVTISCRASDSVSTLMHWYQQKPGQQPKLLIYLASHLESGVPARFSGSGSGTDFTLTIDPVEADDTATYYCQQSWNDPWTFGGGTKLELKRTVAAPSVFIFPPSDEQLKSGTASVVCLLNNFYPREAKVQWKVDNALQSGNSQESVTEQDSKDSTYSLSSTLTLSKADYEKHKVYACEVTHQGLSSPVTKSFNRGECGSGATNFSLLKQAGDVEENPG heavy chain: EVQLVESDGGLVQPGRSLKLPCAASGFTFSDYYMAWVRQAPTKGLEWVASISYDGSSTYYRDSVKGRFTISRDNAKSTLYLQMDSLRSEDTATYYCGRHSSYFDYWGQGVMVTVSSASTKGPSVFPLAPCSRSTSESTAALGCLVKDYFPEPVTVSWNSGALTSGVHTFPAVLQSSGLYSLSSVVTVPSSNFGTQTYTCNVDHKPSNTKVDKTVERKCCVECPPCPAPPVAGPSVFLFPPKPKDTLMISRTPEVTCVVVDVSHEDPEVQFNWYVDGVEVHNAKTKPREEQFNSTFRVVSVLTVVHQDWLNGKEYKCKVSNKALPRPIEKTISKTKGQPREPQVYTLPPSREEMTKNQVSLTCLVKGFYPSDIAVEWESNGQPENNYKTTPPMLDSDGSFFLYSKLTVDKSRWQQGNVFSCSVMHEALHNHYTQKSLSLSPGKLEPPPSTVSNMATVAVLVVLGAAIVTGAVVAFVMKMRRRNTGGKGGDYALAPGSQTSDLSLPDCKVMVHDPHSLA
2 | 1.4 | 6.98 | 4.67 | – | human IgG2 anti-mouse CD40 surface displayed antibody, Fc mutant G327A/A330V (antibody, name in EU numbering, as m1; positions are Eu numbers; copies: 2 + 2) light chain (with the P2A rest): DTVLTQSPALAVSPGERVTISCRASDSVSTLMHWYQQKPGQQPKLLIYLASHLESGVPARFSGSGSGTDFTLTIDPVEADDTATYYCQQSWNDPWTFGGGTKLELKRTVAAPSVFIFPPSDEQLKSGTASVVCLLNNFYPREAKVQWKVDNALQSGNSQESVTEQDSKDSTYSLSSTLTLSKADYEKHKVYACEVTHQGLSSPVTKSFNRGECGSGATNFSLLKQAGDVEENPG heavy chain: EVQLVESDGGLVQPGRSLKLPCAASGFTFSDYYMAWVRQAPTKGLEWVASISYDGSSTYYRDSVKGRFTISRDNAKSTLYLQMDSLRSEDTATYYCGRHSSYFDYWGQGVMVTVSSASTKGPSVFPLAPCSRSTSESTAALGCLVKDYFPEPVTVSWNSGALTSGVHTFPAVLQSSGLYSLSSVVTVPSSNFGTQTYTCNVDHKPSNTKVDKTVERKCCVECPPCPAPPVAGPSVFLFPPKPKDTLMISRTPEVTCVVVDVSHEDPEVQFNWYVDGVEVHNAKTKPREEQFNSTFRVVSVLTVVHQDWLNGKEYKCKVSNKALPVPIEKTISKTKGQPREPQVYTLPPSREEMTKNQVSLTCLVKGFYPSDIAVEWESNGQPENNYKTTPPMLDSDGSFFLYSKLTVDKSRWQQGNVFSCSVMHEALHNHYTQKSLSLSPGKLEPPPSTVSNMATVAVLVVLGAAIVTGAVVAFVMKMRRRNTGGKGGDYALAPGSQTSDLSLPDCKVMVHDPHSLA
3 | – | 19.2 | 33.4 | 1.2 | human IgG2 anti-mouse CD40 surface displayed antibody, Fc mutant S267E/P271Y (antibody, name in EU numbering, as m1; positions are Eu numbers; copies: 2 + 2) light chain (with the P2A rest): DTVLTQSPALAVSPGERVTISCRASDSVSTLMHWYQQKPGQQPKLLIYLASHLESGVPARFSGSGSGTDFTLTIDPVEADDTATYYCQQSWNDPWTFGGGTKLELKRTVAAPSVFIFPPSDEQLKSGTASVVCLLNNFYPREAKVQWKVDNALQSGNSQESVTEQDSKDSTYSLSSTLTLSKADYEKHKVYACEVTHQGLSSPVTKSFNRGECGSGATNFSLLKQAGDVEENPG heavy chain: EVQLVESDGGLVQPGRSLKLPCAASGFTFSDYYMAWVRQAPTKGLEWVASISYDGSSTYYRDSVKGRFTISRDNAKSTLYLQMDSLRSEDTATYYCGRHSSYFDYWGQGVMVTVSSASTKGPSVFPLAPCSRSTSESTAALGCLVKDYFPEPVTVSWNSGALTSGVHTFPAVLQSSGLYSLSSVVTVPSSNFGTQTYTCNVDHKPSNTKVDKTVERKCCVECPPCPAPPVAGPSVFLFPPKPKDTLMISRTPEVTCVVVDVEHEDYEVQFNWYVDGVEVHNAKTKPREEQFNSTFRVVSVLTVVHQDWLNGKEYKCKVSNKGLPAPIEKTISKTKGQPREPQVYTLPPSREEMTKNQVSLTCLVKGFYPSDIAVEWESNGQPENNYKTTPPMLDSDGSFFLYSKLTVDKSRWQQGNVFSCSVMHEALHNHYTQKSLSLSPGKLEPPPSTVSNMATVAVLVVLGAAIVTGAVVAFVMKMRRRNTGGKGGDYALAPGSQTSDLSLPDCKVMVHDPHSLA
